Measured values from US10857209B2, “Lysosomal acid lipase and PPAR gamma ligands as immune therapies for cancer treatment” (Indiana University Research and Technology Corporation, priority 2016, dated 2020).

B1: hLAL: human lysosomal acid lipase expressed from a doxycycline-controlled tissue-specific transgene in lal−/− mice; never administered as a protein (protein)
chain: GPKPVVFLQHGLLADSSNWVTNLANSSLGFILADAGFDVWMGNSRGNTWSRKHKTLSVSQDEFWAFSYDEMAKYDLPASINFILNKTGQEQVYYVGHSQGTTIGFIAFSQIPELAKRIKMFFALGPVASVAFCTSPMAKLGRLPDHLIKDLFGDKEFLPQSAFLKWLGTHVCTHVILKELCGNLCFLLCGFNERNLNMSRVDVYTTHSPAGTSVQNMLHWSQAVKFQKFQAFDWGSSAKNYFHYNQSYPPTYNVKDMLVPTAVWSGGHDWLADVYDVNILLTQITNLVFHESIPEWEHLDFIWGLDAPWRLYNKIINLMRKYQ
modifications: left off: small tags and cut ends
notes: human lysosomal acid lipase expressed from a doxycycline-controlled tissue-specific transgene in lal−/− mice; never administered as a protein

Tests used:
[1] = tested on: B16 melanoma cells; assay: In vitro co-culture of pre-treated MDSCs and B16 melanoma cells; type: cell-based, mouse; conditions: lal−/− Ly6G+ cells pre-treated 20 μmol/L 24 hours; 72 hours co-culture; vs ethanol
Description: Ethanol or 20 μmol/L 9-HODE pre-treated (for 24 hours) MDSCs (5×10^5) and B16 melanoma cells (5×10^3) were mixed, and seeded into a well of 96-well plates in DMEM supplemented with 10% FBS. Seventy-two hours later, unattached MDSCs were removed by washing with PBS, and the number of attached B16 melanoma cells was counted. Morphologically, MDSCs are much smaller than B16 melanoma cells for exclusion.

[2] = molecular target: T1, PPARγ (Mus musculus, UniProt P37238); assay: T cell numbers in lal−/− mice (data not shown)
T1 construct: host or cells: lal-/- mice (lung)
T1 sequence (P37238 1-505): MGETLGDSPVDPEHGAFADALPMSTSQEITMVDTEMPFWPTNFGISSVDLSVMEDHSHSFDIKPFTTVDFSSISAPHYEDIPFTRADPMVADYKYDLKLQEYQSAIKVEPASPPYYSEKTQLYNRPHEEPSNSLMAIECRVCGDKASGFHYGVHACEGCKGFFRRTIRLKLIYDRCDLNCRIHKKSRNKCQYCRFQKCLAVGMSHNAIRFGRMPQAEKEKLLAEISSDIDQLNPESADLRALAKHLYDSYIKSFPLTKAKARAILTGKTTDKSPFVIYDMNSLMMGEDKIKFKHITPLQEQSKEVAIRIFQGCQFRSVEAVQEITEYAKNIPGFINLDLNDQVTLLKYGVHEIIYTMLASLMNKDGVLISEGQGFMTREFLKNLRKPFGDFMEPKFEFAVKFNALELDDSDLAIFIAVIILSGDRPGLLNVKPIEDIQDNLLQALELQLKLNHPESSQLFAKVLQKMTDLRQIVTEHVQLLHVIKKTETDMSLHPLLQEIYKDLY

[3] = tested on: Lewis lung cancer (LLC) cells; assay: In vitro co-culture of pre-treated MDSCs and LLC cells; type: cell-based, mouse; conditions: lal−/− Ly6G+ cells pre-treated 20 μmol/L 24 hours; 72 hours co-culture
[4] = tested on: B16 melanoma cells; assay: Transwell assay, effect of MDSC-secreted cytokines on melanoma cell proliferation; type: cell-based, mouse; conditions: pre-treated lal−/− Ly6G+ cells in upper chamber; 72 hours
Description: To observe the effect of MDSCs-secreted cytokines on melanoma cell proliferation, transwell assay was performed with 0.4-μm-pore 6.5-mm diameter Transwell plates (Corning) to separate MDSCs and B16 melanoma cells. One million pre-treated MDSCs in 200 μL media were seeded into the upper chamber of the plates, while 2×10^4 melanoma cells in 500 μL media were placed in the lower chamber. After 72 hours' culture, the transwells were removed, and the number of B16 melanoma cells in the lower chamber was counted.

[5] = tested on: Ly6G+ MDSCs; assay: Transwell assay of MDSC transendothelial migration; type: cell-based, mouse; conditions: lal−/− Ly6G+ cells pre-treated 20 μmol/L 48 hours; four hours; vs ethanol
Description: Transwell assay was used to determine MDSC transendothelial migration. SVECs were added to the upper chamber of 24-well 8.0-μm-pore Transwell plates (Corning, Corning, N.Y., USA), and incubated at 37° C., 5% CO2 for 48 hours to form an EC monolayer. The supernatant was then removed, and CellTracker™ Green 5-Chloromethylfluorescein Diacetate (CMFDA) (Invitrogen, Grand Island, N.Y., USA)-labeled MDSCs (2×10^4 cells in 200 μL media) were added to the upper well. After 4 hours, transendothelial migration of MDSCs was determined by counting their numbers in the lower chamber under 5 random microscopic fields.

[6] = tested on: cytokines and chemokines; assay: Cytokines and chemokines in plasma (ELISA) and liver (qPCR) of LAP-Tg/KO mice; type: in vivo, mouse
Description: Total RNAs were purified from livers or isolated hepatocytes using RNeasy Mini Kits according to the manufacturer's instruction (Qiagen). Quantitative real-time RT-PCR (qPCR) was performed as described in Wu et al., Blood 2012, 119:115-126). Relative gene expression levels were analyzed using the 2^−ΔΔCT method. Primers of mouse IL-6, mouse granulocyte-macrophage colony-stimulating factor (GM-CSF), mouse macrophage colony-stimulating factor, mouse tumor necrosis factor (TNF)-α, mouse IL-2, mouse IL-4, mouse IL-17, mouse interferon (IFN)-γ, mouse monocyte chemotactic protein-1 (MCP-1), mouse chemokine ligand (CCL)-3, mouse CCL4, mouse CCL5, mouse CXCL10, and glyceraldehyde-3-phosphate dehydrogenase for qPCR were described in Qu et al. Cancer Res 2009, 69:7252-7261; Zhao et al., Oncogene 2014, 34:1938-1948.
The expression levels of IL-6, GM-CSF, MCP-1 (BD Bio-sciences), and CCL5 (R&D Systems, Minneapolis, Minn.) in the plasma and hepatocyte culture medium were measured using enzyme-linked immunosorbent assay (ELISA) kits according to the manufacturer's instructions.

[7] = tested on: cytokines and chemokines; assay: Cytokines and chemokines in BALF and plasma (ELISA) and lung (RT-PCR) of CCSP-Tg/KO mice; type: in vivo, mouse
Description: BALF was collected by 1 mL PBS. The expression levels of IL-6, GM-CSF, MCP-1 and TNFα in the BALF and plasma were measured using ELISA kits (BD Biosciences, San Jose, Calif.) according to the manufacturer's instructions.
Total RNAs were purified from lungs of lal^+/+, lal^−/− and CCSP-Tg/KO triple mice using RNeasy Mini Kits according to the manufacturer's instruction (Qiagen, Valencia, Calif., USA). Quantitative (q)RT-PCR was performed as described previously (Wu et al., Blood. 2012; 119:115-26). Analysis was performed by the 2^−ΔΔCT method. Primers of mIL-6, mIL-1β, mIL-10, mGM-CSF, mM-CSF, mTNF-α, mMCP-1, mCCL5 and GAPDH were used for real-time PCR.

[8] = doxycycline-untreated LAP-Tg/KO triple mice (hLAL on)
[9] = doxycycline-treated CCSP-Tg/KO mice
[10] = doxycycline-treated vs untreated CCSP-Tg/KO mice

Molecule | proliferation of B16 melanoma cells upon co-culture [1] | decreased T cell numbers in lal−/− mice [2] | proliferation of LLC cells upon co-culture [3] | number of B16 melanoma cells in lower chamber [4] | Ly6G+ cells migrated across endothelial monolayer [5] | liver IL-4 and IL-17 mRNA levels [6, 8] | liver mRNA levels of IL-2 and IFN-γ [6, 8] | liver mRNA levels of IL-6, GM-CSF, M-CSF and TNF-α [6, 8] | liver mRNA of chemokines MCP-1, CCL3, CCL4, CCL5 and CXCL10 [6, 8] | plasma concentrations of IL-6, GM-CSF, MCP-1 and CCL5 (ELISA) ([6]; untreated (hLAL on) vs doxycycline-treated LAP-Tg/KO mice) | lung GM-CSF mRNA level [7, 9] | lung mRNA levels of IL-6, MCP-1, TNFα, CCL5, IL-10 and IL-1β [7, 9] | IL-6, GM-CSF, MCP-1 and TNFα concentrations in BALF (ELISA) [7, 10] | IL-6, GM-CSF, MCP-1 and TNFα levels in the plasma [7, 10]
9-hydroxyoctadecadienoic acid [9-HODE] | significantly decreased proliferation of B16 melanoma cells | reversed | reduced proliferation of LLC cells | significantly less | less Ly6G^+ cells in the lower chamber |  |  |  |  |  |  |  |  | 
B1 |  |  |  |  |  | unchanged | reduced mRNA levels | significantly down-regulated | markedly down-regulated | decreased | remained unchanged | significantly down-regulated | significantly decreased | similar
